In article PMC7511888, “Dependence of PINK1 accumulation on mitochondrial redox system” (Aging Cell, 2020):

Experiments:
[1] = target: CHCHD4 (human (endogenous in HEK293)) (UniProt Q8N4Q1); assay: co-IP; HEK293 cells transfected with PINK1-EGFP or its mutants for 24 hr; lysed; immunoprecipitation of endogenous CHCHD4 with anti-CHCHD4 antibody; immunoblot; level in the precipitant compared to input
CHCHD4 = target: T1, CHCHD4 (human (endogenous in HEK293), UniProt Q8N4Q1 1-142); assay: as above; details: partners not purified
T1 construct: CHCHD4, mammalian homologue of yeast Mia40; endogenous protein of HEK293 cells, precipitated with polyclonal anti-CHCHD4 antibodies (Proteintech); source: endogenous, HEK293 lysate
T1 sequence (looked up): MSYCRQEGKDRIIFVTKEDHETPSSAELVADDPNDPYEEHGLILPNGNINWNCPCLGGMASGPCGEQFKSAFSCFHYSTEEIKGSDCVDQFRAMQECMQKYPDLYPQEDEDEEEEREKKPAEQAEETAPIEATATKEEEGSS

| Molecule | relative level in the precipitants as compared to input [1] | relative level in the precipitants as compared to input (CHCHD4) |
| --- | --- | --- |
| PINK1‐EGFP ∆166‐171 (AA166‐171 deletion) (from UniProt Q9BXM7 78-581) (natural protein) | 1.01 |  |
| PINK1‐EGFP A168P (natural protein, UniProt Q9BXM7 78-581, looked up, PINK1 as in PINK1-EGFP with the PD-associated mutation A168P; also called PINK1 A168P; PD‐associated mutant; source: HEK293, transfected, in lysate; not shown: EGFP (from the vector pEGFP-N3), C-terminal, kept) AARLQRQFVVRAWGCAGPCGRAVFLAFGLGLGLIEEKQAESRRAVSACQEIQAIFTQKSKPGPDPLDTRRLQGFRLEEYLIGQSIGKGCSPAVYEATMPTLPQNLEVTKSTGLLPGRGPGTSAPGEGQERAPGAPAFPLAIKMMWNISAGSSSEAILNTMSQELVPASRVALAGEYGAVTYRKSKRGPKQLAPHPNIIRVLRAFTSSVPLLPGALVDYPDVLPSRLHPEGLGHGRTLFLVMKNYPCTLRQYLCVNTPSPRLAAMMLLQLLEGVDHLVQQGIAHRDLKSDNILVELDPDGCPWLVIADFGCCLADESIGLQLPFSSWYVDRGGNGCLMAPEVSTARPGPRAVIDYSKADAWAVGAIAYEIFGLVNPFYGQGKAHLESRSYQEAQLPALPESVPPDVRQLVRALLQREASKRPSARVAANVLHLSLWGEHILALKNLKLDKMVGWLLQQSAATLLANRLTEKCCVETKMKMLFLANLECETLCQAALLLCSWRAAL |  | 0.2 |
| PINK1‐EGFP V170G (natural protein, UniProt Q9BXM7 78-581, looked up, PINK1 as in PINK1-EGFP with the PD-associated mutation V170G; also called PINK1 V170G; PD‐associated mutant; source: HEK293, transfected, in lysate; not shown: EGFP (from the vector pEGFP-N3), C-terminal, kept) AARLQRQFVVRAWGCAGPCGRAVFLAFGLGLGLIEEKQAESRRAVSACQEIQAIFTQKSKPGPDPLDTRRLQGFRLEEYLIGQSIGKGCSAAGYEATMPTLPQNLEVTKSTGLLPGRGPGTSAPGEGQERAPGAPAFPLAIKMMWNISAGSSSEAILNTMSQELVPASRVALAGEYGAVTYRKSKRGPKQLAPHPNIIRVLRAFTSSVPLLPGALVDYPDVLPSRLHPEGLGHGRTLFLVMKNYPCTLRQYLCVNTPSPRLAAMMLLQLLEGVDHLVQQGIAHRDLKSDNILVELDPDGCPWLVIADFGCCLADESIGLQLPFSSWYVDRGGNGCLMAPEVSTARPGPRAVIDYSKADAWAVGAIAYEIFGLVNPFYGQGKAHLESRSYQEAQLPALPESVPPDVRQLVRALLQREASKRPSARVAANVLHLSLWGEHILALKNLKLDKMVGWLLQQSAATLLANRLTEKCCVETKMKMLFLANLECETLCQAALLLCSWRAAL |  | 0.39 |
| PINK1‐EGFP Y171S (natural protein, UniProt Q9BXM7 78-581, looked up, PINK1 as in PINK1-EGFP with Y171S; also called Y171S point mutant; source: HEK293, transfected, in lysate; not shown: EGFP (from the vector pEGFP-N3), C-terminal, kept) AARLQRQFVVRAWGCAGPCGRAVFLAFGLGLGLIEEKQAESRRAVSACQEIQAIFTQKSKPGPDPLDTRRLQGFRLEEYLIGQSIGKGCSAAVSEATMPTLPQNLEVTKSTGLLPGRGPGTSAPGEGQERAPGAPAFPLAIKMMWNISAGSSSEAILNTMSQELVPASRVALAGEYGAVTYRKSKRGPKQLAPHPNIIRVLRAFTSSVPLLPGALVDYPDVLPSRLHPEGLGHGRTLFLVMKNYPCTLRQYLCVNTPSPRLAAMMLLQLLEGVDHLVQQGIAHRDLKSDNILVELDPDGCPWLVIADFGCCLADESIGLQLPFSSWYVDRGGNGCLMAPEVSTARPGPRAVIDYSKADAWAVGAIAYEIFGLVNPFYGQGKAHLESRSYQEAQLPALPESVPPDVRQLVRALLQREASKRPSARVAANVLHLSLWGEHILALKNLKLDKMVGWLLQQSAATLLANRLTEKCCVETKMKMLFLANLECETLCQAALLLCSWRAAL |  | 3.31 |
